These results are taken from patent publication US20140212406A1 (INSTITUT NATIONAL DE LA SANTE ET DE LA RECHERCHE MEDICALE …, published 2014).

The chains are these.
B1: rat single-chain tPA with arginine to serine point mutation at position 276 (R276S), 6xHis-tagged (enzyme)
chain: HHHHHHSYRATCRDEQTQTTYQQHQSWLRPMLRGNRVEYCRCNSGLAQCHSVPVRSCSEPRCFNGGTCQQALYFSDFVCQCPDGFVGKRCDIDTRATCFEGQGITYRGTWSTAENGAECINWNSSALSQKPYSARRPNAIKLGLGNHNYCRNPDRDVRPWCYVFKAGKYTTEFCSTPACPKGPTEDCYVGKGVTYRGTHSFTTSKASCLPWNSMILIGKTYTAWRANSQALGLGRHNYCRNPDGDAKPWCHVMKDRKLTWEYCDMSPCSTCGLRQYKQPLFSIKGGLFTDITSHPWQAAIFVKNKRSPGERFLCGGVLISSCWVLSAAHCFVERFPPHHLKVVLGRTYRVVPGEEEQTFEIEKYIVHKEFDDDTYDNDIALLQLRSDSSQCAQESSSVGTACLPDPDVQLPDWTECELSGYGKHEASSPFFSDRLKEAHVRLYPSSRCTSQHLFNKTITSNMLCAGDTRTGGNQDVHDACQGDSGGPLVCMIDKRMTLLGIISWGLGCGQKDVPGIYTKVTNYLNWIQDNMKQ
notes: Present only in its single-chain form; also called sc*-tPA; rat sc*-tPA
B2: rat tPA with tryptophan to arginine point mutation at position 254 (W254R), 6xHis-tagged (enzyme)
chain: B1 chain with W260R, S282R
notes: also called K2*-tPA; tPA W254R
B3: human tPA containing the triple mutation P125R W253R R275S, 6xHis tag and linker at the N-terminus (enzyme)
chain: HHHHHHGSSYQVICRDEKTQMIYQQHQSWLRPVLRSNRVEYCWCNSGRAQCHSVPVKSCSEPRCFNGGTCQQALYFSDFVCQCPEGFAGKCCEIDTRATCYEDQGISYRGTWSTAESGAECTNWNSSALAQKRYSGRRPDAIRLGLGNHNYCRNPDRDSKPWCYVFKAGKYSSEFCSTPACSEGNSDCYFGNGSAYRGTHSLTESGASCLPWNSMILIGKVYTAQNPSAQALGLGKHNYCRNPDGDAKPWCHVLKNRRLTREYCDVPSCSTCGLRQYSQPQFSIKGGLFADIASHPWQAAIFAKHRRSPGERFLCGGILISSCWILSAAHCFQERFPPHHLTVILGRTYRVVPGEEEQKFEVEKYIVHKEFDDDTYDNDIALLQLKSDSSRCAQESSVVRTVCLPPADLQLPDWTECELSGYGKHEALSPFYSERLKEAHVRLYPSSRCTSQHLLNRTVTDNMLCAGDTRSGGPQANLHDACQGDSGGPLVCLNDGRMTLVGIISWGLGCGQKDVPGVYTKVTNYLDWIRDNMRP
B4: human tPA containing the double mutation W253R R275S, 6xHis tag and linker at the N-terminus (enzyme)
chain: B3 chain with R133P
B5: human single-chain tPA with arginine to serine point mutation at position 275 (R275S), 6xHis tag and linker at the N-terminus (enzyme)
chain: B3 chain with R133P, R261W
B6: human tPA containing a tryptophan to arginine point mutation at position 253 (W253R), 6xHis tag and linker at the N-terminus (enzyme)
chain: B3 chain with R133P, S283R
B7: fibrin (other)
chain 1: GPRVVERHQSACKDSDWPFCSDEDWNYKCPSGCRMKGLIDEVNQDFTNRINKLKNSLFEYQKNNKDSHSLTTNIMEILRGDFSSANNRDNTYNRVSEDLRSRIEVLKRKVIEKVQHIQLLQKNVRAQLVDMKRLEVDIDIKIRSCRGSCSRALAREVDLKDYEDQQKQLEQVIAKDLLPSRDRQHLPLIKMKPVPDLVPGNFKSQLQKVPPEWKALTDMPQMRMELERPGGNEITRGGSTSYGTGSETESPRNPSSAGSWNSGSSGPGSTGNRNPGSSGTGGTATWKPGSSGPGSTGSWNSGSSGTGSTGNQNPGSPRPGSTGTWNPGSSERGSAGHWTSESSVSGSTGQWHSESGSFRPDSPGSGNARPNNPDWGTFEEVSGNVSPGTRREYHTEKLVTSKGDKELRTGKEKVTSGSTTTTRRSCSKTVTKTVIGPDGHKEVTKEVVTSEDGSDCPEAMDLGTLSGIGTLDGFRHRHPDEAAFFDTASTGKTFPGFFSPMLGEFVSETESRGSESGIFTNTKESSSHHPGIAEFPSRGKSSSYSKQFTSSTSYNRGDSTFESKSYKMADEAGSEADHEGTHSTKRGHAKSRPV
chain 2: GHRPLDKKREEAPSLRPAPPPISGGGYRARPAKAAATQKKVERKAPDAGGCLHADPDLGVLCPTGCQLQEALLQQERPIRNSVDELNNNVEAVSQTSSSSFQYMYLLKDLWQKRQKQVKDNENVVNEYSSELEKHQLYIDETVNSNIPTNLRVLRSILENLRSKIQKLESDVSAQMEYCRTPCTVSCNIPVVSGKECEEIIRKGGETSEMYLIQPDSSVKPYRVYCDMNTENGGWTVIQNRQDGSVDFGRKWDPYKQGFGNVATNTDGKNYCGLPGEYWLGNDKISQLTRMGPTELLIEMEDWKGDKVKAHYGGFTVQNEANKYQISVNKYRGTAGNALMDGASQLMGENRTMTIHNGMFFSTYDRDNDGWLTSDPRKQCSKEDGGGWWYNRCHAANPNGRYYWGGQYTWDMAKHGTDDGVVWMNWKGSWYSMRKMSMKIRPFFPQQ
chain 3: YVATRDNCCILDERFGSYCPTTCGIADFLSTYQTKVDKDLQSLEDILHQVENKTSEVKQLIKAIQLTYNPDESSKPNMIDAATLKSRKMLEEIMKYEASILTHDSSIRYLQEIYNSNNQKIVNLKEKVAQLEAQCQEPCKDTVQIHDITGKDCQDIANKGAKQSGLYFIKPLKANQQFLVYCEIDGSGNGWTVFQKRLDGSVDFKKNWIQYKEGFGHLSPTGTTEFWLGNEKIHLISTQSAIPYALRVELEDWNGRTSTADYAMFKVGPEADKYRLTYAYFAGGDAGDAFDGFDFGDDPSDKFFTSHNGMQFSTWDNDNDKFEGNCAEQDGSGWWMNKCHAGHLNGVYYQGGTYSKASTPNGYDNGIIWATWKTRWYSMKKTTMKIIPFNRLTIGEGQQHHLGGAKQVRPE

Where a chain is given by its changes, count along the chain named. Numbers in names are those of the source.

Assay [1] deals with B7. Briefly: binding of tPA variants to a solid-phase fibrin surface on PVC plates (3 independent experiments, 12 doses).
Assay [2] addresses N-methyl-D-aspartate receptor on primary cultured mouse cortical neurons (mouse, UniProt P35438 19-938). Put plainly: cell-based or functional assay.
Assay [3] concerns the target T1, rat wild type tPA (Rattus norvegicus), 6xHis-tagged (rat, UniProt P19637 33-559).
T1 construct: mature; Produced in HEK-293 cells and purified on Ni-NTA; also called wt-tPA; rat wt-tPA
Put plainly: binding of tPA variants to a solid-phase fibrin surface on PVC plates (3 independent experiments, 12 doses).

Take B1: the Kd in assay [1] was 1.2 nM.
The same measure, in the same setting: the result for B2 reads 0.5 nM.
Consider B3, for which the “neuronal cell death (LDH release, cortical neurons, 0.3 uM)” value (“neuronal cell death” for short) in assay [2] was determined as 51%.
As for B4, the “neuronal cell death” value in assay [2] was 62%.
Turning to B5, in assay [2], the “neuronal cell death” value was determined as 62%.
Same read-out and setting: the value for B6 was 64%.
B7 yielded a Kd in assay [3] of 0.26 nM.

As usually defined, the Kd is the constant that tells how readily two partners part at equilibrium. The low end stands for higher affinity, the high end for lower affinity.
